Measurements from PMC9804626 (Molecular Microbiology, 2022).

T1: RodZ‐L‐FLAG^3 (Streptococcus pneumoniae D39)
T1 sequence (Q8DMX7 1-276, looked up): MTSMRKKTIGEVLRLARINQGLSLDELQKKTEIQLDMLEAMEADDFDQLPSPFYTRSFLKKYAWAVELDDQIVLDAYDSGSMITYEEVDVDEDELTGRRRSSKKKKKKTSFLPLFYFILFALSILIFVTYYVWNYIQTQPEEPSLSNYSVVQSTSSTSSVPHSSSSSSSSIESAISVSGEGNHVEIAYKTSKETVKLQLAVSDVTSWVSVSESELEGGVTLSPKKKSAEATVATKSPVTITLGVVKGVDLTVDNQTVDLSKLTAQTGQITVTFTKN

T2: RodZ‐FLAG (Streptococcus pneumoniae D39)
T2 sequence (Q8DMX7 1-276, looked up): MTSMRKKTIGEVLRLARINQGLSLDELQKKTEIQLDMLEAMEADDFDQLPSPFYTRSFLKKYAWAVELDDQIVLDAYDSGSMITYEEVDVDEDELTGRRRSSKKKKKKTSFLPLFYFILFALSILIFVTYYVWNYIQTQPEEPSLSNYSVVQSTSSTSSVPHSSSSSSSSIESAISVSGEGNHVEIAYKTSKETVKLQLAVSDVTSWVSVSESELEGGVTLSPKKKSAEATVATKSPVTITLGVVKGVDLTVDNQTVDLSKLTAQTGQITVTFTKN

T3: MreC‐L‐F3 (Streptococcus pneumoniae D39, UniProt Q8DMY2 1-272)
T3 sequence (looked up): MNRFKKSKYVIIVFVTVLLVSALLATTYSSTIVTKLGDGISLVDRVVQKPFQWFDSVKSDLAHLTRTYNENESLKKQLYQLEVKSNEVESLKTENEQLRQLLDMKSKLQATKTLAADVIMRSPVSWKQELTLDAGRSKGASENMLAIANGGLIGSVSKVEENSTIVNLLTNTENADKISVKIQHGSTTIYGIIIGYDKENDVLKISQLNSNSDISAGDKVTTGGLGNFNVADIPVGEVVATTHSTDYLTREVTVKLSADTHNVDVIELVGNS


What was measured:
Test in all cases: co-IP
[1] = target: T1, RodZ‐L‐FLAG^3 (Streptococcus pneumoniae D39)
[2] = target: MpgA‐F (Streptococcus pneumoniae D39)
[3] = target: PBP1a‐F (Streptococcus pneumoniae D39)
[4] = target: KhpB‐L‐F3 (Streptococcus pneumoniae D39) (UniProt Q8CY87)
[5] = target: MreC‐L‐F3 (Streptococcus pneumoniae D39) (UniProt Q8DMY2)
[6] = target: T2, RodZ‐FLAG (Streptococcus pneumoniae D39)
MreC‐L‐F3 = target: T3, MreC‐L‐F3

FtsA, sequence (A0A0H2ZPT5 whole entry): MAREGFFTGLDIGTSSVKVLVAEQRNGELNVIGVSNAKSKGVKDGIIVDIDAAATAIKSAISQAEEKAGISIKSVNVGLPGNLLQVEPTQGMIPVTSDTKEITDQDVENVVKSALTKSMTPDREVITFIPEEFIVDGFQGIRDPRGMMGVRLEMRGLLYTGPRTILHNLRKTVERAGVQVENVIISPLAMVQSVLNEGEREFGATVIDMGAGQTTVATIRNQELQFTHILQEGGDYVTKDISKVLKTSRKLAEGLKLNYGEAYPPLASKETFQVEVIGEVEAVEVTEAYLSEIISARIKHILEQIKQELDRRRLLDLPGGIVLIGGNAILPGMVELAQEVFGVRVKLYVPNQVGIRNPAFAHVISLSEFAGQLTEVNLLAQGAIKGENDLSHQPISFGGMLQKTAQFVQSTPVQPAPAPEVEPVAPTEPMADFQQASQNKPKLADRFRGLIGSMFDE

Row | Molecule | ratio of prey protein band/background [1] | ratio of prey protein band/background [2] | ratio of prey protein band/background [3] | ratio of prey protein band/background [4] | ratio of prey protein band/background [5] | ratio of prey protein band/background [6] | ratio of prey protein band/background (MreC‐L‐F3)
1 | FtsW‐L‐GFP (from UniProt A0ACD7PRK7 1-409) (natural protein) | 4.5 | – | – | – | – | – | –
2 | FtsA (from UniProt A0A0H2ZPT5 1-457) (natural protein) | – | 4.5 | – | – | – | – | –
3 | MpgA‐HA (natural protein) | 8.6 | – | – | – | – | – | –
4 | RodZ‐HA^3 (natural protein) | – | – | 8.6 | 1.4 | – | – | –
5 | bPBP2x (natural protein) | 8.7 | 12 | 15 | – | 10 | 4.8 | –
6 | aPBP1a (natural protein) | 61 | 22 | – | – | 41 | 11 | –
7 | GpsB (natural protein) | 51 | 38 | 16 | – | 26 | 24 | –
8 | bPBP2b (natural protein) | 63 | 13 | 13 | – | 47 | 26 | –
9 | StkP (natural protein) | 23 | 34 | 28 | – | 14 | – | –
10 | DivIVA (natural protein, UniProt Q8CWP9 1-262, looked up) MPITSLEIKDKTFGTRFRGFDPEEVDEFLDIVVRDYEDLVRANHDKNLRIKSLEERLSYFDEIKDSLSQSVLIAQDTAERVKQAAHERSNNIIHQAEQDAQRLLEEAKYKANEILRQATDNAKKVAVETEELKNKSRVFHQRLKSTIESQLAIVESSDWEDILRPTATYLQTSDEAFKEVVSEVLGEPIPAPIEEEPIDMTRQFSQAEMEELQARIEVADKELSEFEAQIKQEVETPTPVVSPQVEEEPLLIQLAQCMKNQK | 18 | 53 | 6.8 | – | – | 7.9 | 4.3
11 | aPBP2a (natural protein, UniProt A0A0H2ZMF9 1-731, looked up) MKLDKLFEKFLSLFKKETSELEDSDSTILRRSRSDRKKLAQVGPIRKFWRRYHLTKIILILGLSAGLLVGIYLFAVAKSTNVNDLQNALKTRTLIFDREEKEAGALSGQKGTYVELTDISKNLQNAVIATEDRSFYKNDGINYGRFFLAIVTAGRSGGGSTITQQLAKNAYLSQDQTVERKAKEFFLALELSKKYSKEQILTMYLNNAYFGNGVWGVEDASKKYFGVSASEVSLDQAATLAGMLKGPELYNPLNSVEDSTNRRDTVLQNMVAAGYIDKNQETEAAEVDMTSQLHDKYEGKISDYRYPSYFDAVVNEAVSKYNLTEEEIVNNGYRIYTELDQNYQANMQIVYENTSLFPRAEDGTFAQSGSVALEPKTGGVRGVVGQVADNDKTGFRNFNYATQSKRSPGSTIKPLVVYTPAVEAGWALNKQLDNHTMQYDSYKVDNYAGIKTSREVPMYQSLAESLNLPAVATVNDLGVDKAFEAGEKFGLNMEKVDRVLGVALGSGVETNPLQMAQAYAAFANEGLMPEAHFISRIENASGQVIASHKNSQKRVIDKSVADKMTSMMLGTFTNGTGISSSPADYVMAGKTGTTEAVFNPEYTSDQWVIGYTPDVVISHWLGFPTTDENHYLAGSTSNGAAHVFRNIANTILPYTPGSTFTVENAYKQNGIAPANTKRQVQTNDNSQTDDNLSDIRGRAQSLVDEASRAISDAKIKEKAQTIWDSIVNLFR | – | – | – | – | – | – | 20
12 | MreC (natural protein) MNRFKKSKYVIIVFVTVLLVSALLATTYSSTIVTKLGDGISLVDRVVQKPFQWFDSVKSDLAHLTRTYNENESLKKQLYQLEVKSNEVESLKTENEQLRQLLDMKSKLQATKTLAADVIMRSPVSWKQELTLDAGRSKGASENMLAIANGGLIGSVSKVEENSTIVNLLTNTENADKISVKIQHGSTTIYGIIIGYDKENDVLKISQLNSNSDISAGDKVTTGGLGNFNVADIPVGEVVATTHSTDYLTREVTVKLSADTHNVDVIELVGNS | 100 | 22 | 19 | – | – | 24 | –
